Measured values published in publication PMC9284966, “Construction of a T7 phage display nanobody library for bio-panning and identification of chicken dendritic cell-specific binding nanobodies” (Scientific Reports, 2022).

Legend:
Assay in all cases: affinity purification with mass spectrometry; purified GST-VHH fusion protein as bait with lysate of immature chicken bone marrow DCs (day 6); in vitro pull-down, then HPLC-MS (done by ZoonBio Biotechnology)
Conditions in all cases: one partner purified
[1] = target: T1, E3 ubiquitin-protein ligase TRIM71 (Gallus gallus (SPF chick), UniProt Q1PRL4)
T1 construct: E3 ubiquitin-protein ligase TRIM71, Gallus gallus, GN = TRIM71; source: endogenous, chicken bone marrow DC lysate
T1 sequence (Q1PRL4 whole entry): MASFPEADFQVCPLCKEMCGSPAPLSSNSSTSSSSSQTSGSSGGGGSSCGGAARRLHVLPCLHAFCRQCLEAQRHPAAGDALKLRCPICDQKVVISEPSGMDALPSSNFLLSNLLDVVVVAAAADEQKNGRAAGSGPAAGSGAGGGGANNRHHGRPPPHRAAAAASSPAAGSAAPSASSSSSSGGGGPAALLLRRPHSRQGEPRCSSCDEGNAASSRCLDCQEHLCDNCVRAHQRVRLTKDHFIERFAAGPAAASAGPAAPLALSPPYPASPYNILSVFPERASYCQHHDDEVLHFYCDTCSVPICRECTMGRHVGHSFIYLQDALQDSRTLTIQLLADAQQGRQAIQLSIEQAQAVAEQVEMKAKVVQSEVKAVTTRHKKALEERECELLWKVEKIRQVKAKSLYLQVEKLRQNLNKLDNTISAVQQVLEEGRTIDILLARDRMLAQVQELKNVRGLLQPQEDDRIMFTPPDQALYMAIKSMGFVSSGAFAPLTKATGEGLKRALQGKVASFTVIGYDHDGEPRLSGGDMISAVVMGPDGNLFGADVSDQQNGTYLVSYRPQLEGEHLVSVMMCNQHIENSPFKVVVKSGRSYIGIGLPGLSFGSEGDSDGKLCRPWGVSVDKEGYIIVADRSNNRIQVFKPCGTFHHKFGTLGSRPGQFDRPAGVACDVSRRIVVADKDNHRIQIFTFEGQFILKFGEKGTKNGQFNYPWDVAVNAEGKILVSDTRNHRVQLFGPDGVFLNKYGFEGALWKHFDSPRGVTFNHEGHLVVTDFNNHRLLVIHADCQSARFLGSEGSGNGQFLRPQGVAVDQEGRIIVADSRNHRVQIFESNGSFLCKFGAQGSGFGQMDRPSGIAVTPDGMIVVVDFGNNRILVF

[2] = target: T2, Uncharacterized protein GN = ZBTB26 (Gallus gallus, UniProt A0A1D5NTV7)
T2 construct: Uncharacterized protein, Gallus gallus, GN = ZBTB26; source: endogenous, chicken bone marrow DC lysate

[3] = target: T3, Uncharacterized protein GN = ERCC5 (Gallus gallus (SPF chick), UniProt F1P266)
T3 construct: Uncharacterized protein, Gallus gallus, GN = ERCC5; source: endogenous, chicken bone marrow DC lysate
T3 sequence (F1P266 entry or part of it): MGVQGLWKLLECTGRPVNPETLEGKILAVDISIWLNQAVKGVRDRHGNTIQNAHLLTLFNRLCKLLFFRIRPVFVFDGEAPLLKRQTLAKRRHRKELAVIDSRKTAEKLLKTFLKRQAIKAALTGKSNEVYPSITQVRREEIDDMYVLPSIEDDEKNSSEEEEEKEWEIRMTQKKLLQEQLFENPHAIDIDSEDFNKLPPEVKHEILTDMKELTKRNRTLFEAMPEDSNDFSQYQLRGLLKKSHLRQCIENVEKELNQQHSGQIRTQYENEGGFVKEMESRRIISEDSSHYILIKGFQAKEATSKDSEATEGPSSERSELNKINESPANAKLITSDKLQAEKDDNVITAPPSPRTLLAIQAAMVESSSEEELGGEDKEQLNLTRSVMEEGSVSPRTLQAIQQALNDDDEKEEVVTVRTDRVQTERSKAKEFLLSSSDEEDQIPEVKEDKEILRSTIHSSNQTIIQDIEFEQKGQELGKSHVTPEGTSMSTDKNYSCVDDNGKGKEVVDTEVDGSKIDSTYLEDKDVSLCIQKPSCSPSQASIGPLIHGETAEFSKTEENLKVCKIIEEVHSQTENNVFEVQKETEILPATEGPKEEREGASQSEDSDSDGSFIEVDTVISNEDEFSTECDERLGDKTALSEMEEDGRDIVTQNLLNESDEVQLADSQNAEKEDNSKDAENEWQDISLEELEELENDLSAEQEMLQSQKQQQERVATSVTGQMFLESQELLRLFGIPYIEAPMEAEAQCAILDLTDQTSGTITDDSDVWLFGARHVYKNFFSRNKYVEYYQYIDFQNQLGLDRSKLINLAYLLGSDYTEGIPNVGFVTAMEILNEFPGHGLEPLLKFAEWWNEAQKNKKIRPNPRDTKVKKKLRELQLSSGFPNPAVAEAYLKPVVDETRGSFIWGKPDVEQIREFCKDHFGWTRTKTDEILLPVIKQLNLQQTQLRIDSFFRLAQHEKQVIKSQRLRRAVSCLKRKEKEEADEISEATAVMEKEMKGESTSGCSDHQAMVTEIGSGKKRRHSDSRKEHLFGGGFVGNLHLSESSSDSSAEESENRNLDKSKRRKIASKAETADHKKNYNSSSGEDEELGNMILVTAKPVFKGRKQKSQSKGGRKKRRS

Calreticulin = target: T4, Calreticulin (Gallus gallus, UniProt A0A8V0X980)
T4 construct: Calreticulin, Gallus gallus, GN = CALR; source: endogenous, chicken bone marrow DC lysate

[4] = target: T5, Protein disulfide-isomerase (Gallus gallus (SPF chick), UniProt P09102)
T5 construct: Protein disulfide-isomerase, Gallus gallus, GN = P4HB; also called P4HB; source: endogenous, chicken bone marrow DC lysate
T5 sequence (P09102 23-515): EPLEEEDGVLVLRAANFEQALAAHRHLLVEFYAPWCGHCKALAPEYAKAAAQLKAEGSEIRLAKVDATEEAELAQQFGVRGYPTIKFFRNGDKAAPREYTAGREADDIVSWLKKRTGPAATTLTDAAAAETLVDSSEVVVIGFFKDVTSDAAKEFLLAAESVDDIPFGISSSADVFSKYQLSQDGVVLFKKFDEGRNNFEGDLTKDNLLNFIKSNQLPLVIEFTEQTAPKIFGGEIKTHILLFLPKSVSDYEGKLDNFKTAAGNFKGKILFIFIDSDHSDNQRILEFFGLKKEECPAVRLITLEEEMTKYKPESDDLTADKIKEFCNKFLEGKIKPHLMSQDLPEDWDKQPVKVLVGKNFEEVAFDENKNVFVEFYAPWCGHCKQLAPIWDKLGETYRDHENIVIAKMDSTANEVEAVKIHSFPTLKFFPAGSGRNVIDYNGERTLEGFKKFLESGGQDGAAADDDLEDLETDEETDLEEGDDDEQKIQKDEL

[5] = target: T6, Glutathione S-transferase (Gallus gallus (SPF chick), UniProt Q08392)
T6 construct: Glutathione S-transferase, Gallus gallus; no gene name printed; source: endogenous, chicken bone marrow DC lysate
T6 sequence (Q08392 whole entry): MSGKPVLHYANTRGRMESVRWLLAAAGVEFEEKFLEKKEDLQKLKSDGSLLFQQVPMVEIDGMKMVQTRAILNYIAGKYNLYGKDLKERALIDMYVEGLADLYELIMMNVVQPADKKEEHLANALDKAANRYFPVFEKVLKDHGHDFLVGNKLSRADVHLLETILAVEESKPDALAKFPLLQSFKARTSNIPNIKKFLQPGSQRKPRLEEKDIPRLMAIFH

[6] = target: T7, Uncharacterized protein GN = LCP1 (Gallus gallus (SPF chick), UniProt Q5ZLW0)
T7 construct: Uncharacterized protein, Gallus gallus, GN = LCP1; source: endogenous, chicken bone marrow DC lysate

[7] = target: T8, SET domain-containing protein (Gallus gallus, UniProt A0A1D5PNH9)
T8 construct: SET domain-containing protein, Gallus gallus, GN = PRDM11; also called PRDM11; source: endogenous, chicken bone marrow DC lysate

[8] = target: T9, Extracellular serine/threonine protein kinase FAM20C isoform X1 (Gallus gallus, UniProt A0A3G2WC03)
T9 construct: Extracellular serine/threonine protein kinase FAM20C isoform X1, Gallus gallus; no GN field printed, the symbol stands in the name; source: endogenous, chicken bone marrow DC lysate

[9] = target: T10, BTB domain-containing protein (Gallus gallus, UniProt A0A1D5NYT7)
T10 construct: BTB domain-containing protein, Gallus gallus, GN = KLHL26; also called KLHL26; source: endogenous, chicken bone marrow DC lysate

[10] = target: T11, UBX domain-containing protein 2B (Gallus gallus, UniProt A0A1D5P1A7)
T11 construct: UBX domain-containing protein 2B, Gallus gallus, GN = UBXN2B; also called UBXN2B; source: endogenous, chicken bone marrow DC lysate

[11] = target: T12, Voltage-dependent anion-selective channel protein 1 (Gallus gallus, UniProt E1BYN7)
T12 construct: Voltage-dependent anion-selective channel protein 1, Gallus gallus, GN = VDAC1; also called VDAC1; VDAC; source: endogenous, chicken bone marrow DC lysate

[12] = target: T13, Collagen alpha-2(VI) chain (Gallus gallus (SPF chick), UniProt P15988)
T13 construct: Collagen alpha-2(VI) chain, Gallus gallus, GN = COL6A2; also called COL6A2; source: endogenous, chicken bone marrow DC lysate
T13 sequence (P15988 28-1022): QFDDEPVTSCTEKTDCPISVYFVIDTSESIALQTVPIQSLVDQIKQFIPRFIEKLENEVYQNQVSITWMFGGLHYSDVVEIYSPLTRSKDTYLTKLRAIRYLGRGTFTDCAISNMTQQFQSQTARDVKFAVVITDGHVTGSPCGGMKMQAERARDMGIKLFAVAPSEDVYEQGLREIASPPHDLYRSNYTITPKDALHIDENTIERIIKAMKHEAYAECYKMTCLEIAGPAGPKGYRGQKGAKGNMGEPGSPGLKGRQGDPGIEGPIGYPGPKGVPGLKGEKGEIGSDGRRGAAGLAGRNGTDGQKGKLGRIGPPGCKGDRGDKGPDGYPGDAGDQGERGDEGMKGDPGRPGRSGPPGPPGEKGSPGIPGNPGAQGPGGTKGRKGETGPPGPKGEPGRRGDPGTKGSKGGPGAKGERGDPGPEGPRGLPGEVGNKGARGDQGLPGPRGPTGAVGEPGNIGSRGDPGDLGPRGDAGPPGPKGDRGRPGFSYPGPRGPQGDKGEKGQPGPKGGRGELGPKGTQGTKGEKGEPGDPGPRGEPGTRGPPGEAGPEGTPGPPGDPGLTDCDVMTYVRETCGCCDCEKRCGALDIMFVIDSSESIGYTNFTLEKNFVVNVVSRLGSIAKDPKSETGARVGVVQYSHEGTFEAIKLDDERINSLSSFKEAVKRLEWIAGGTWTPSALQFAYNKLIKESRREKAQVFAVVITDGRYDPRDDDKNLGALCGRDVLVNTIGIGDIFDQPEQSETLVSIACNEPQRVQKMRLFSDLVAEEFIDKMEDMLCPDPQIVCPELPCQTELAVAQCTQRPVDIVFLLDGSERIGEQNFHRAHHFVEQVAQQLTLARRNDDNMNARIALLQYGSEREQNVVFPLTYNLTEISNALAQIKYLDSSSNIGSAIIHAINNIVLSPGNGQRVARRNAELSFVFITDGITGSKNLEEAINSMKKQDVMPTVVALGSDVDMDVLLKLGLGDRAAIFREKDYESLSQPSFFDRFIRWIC

[13] = target: T14, RanGAP1_C domain-containing protein (Gallus gallus, UniProt A0A8V0YG17)
T14 construct: RanGAP1_C domain-containing protein, Gallus gallus, GN = RANGAP1; source: endogenous, chicken bone marrow DC lysate

[14] = target: T15, Uncharacterized protein GN = GPC2 (Gallus gallus (SPF chick), UniProt A0A8V0ZXK1)
T15 construct: Uncharacterized protein, Gallus gallus, GN = GPC2; source: endogenous, chicken bone marrow DC lysate

[15] = target: T16, RING-type E3 ubiquitin transferase (Gallus gallus (endogenous, immature …, UniProt A0A8V0YPN2))
T16 construct: RING-type E3 ubiquitin transferase, Gallus gallus, GN = UHRF2; also called UHRF2; source: endogenous, chicken bone marrow DC lysate

[16] = target: T17, Uncharacterized protein GN = RAP1A (Gallus gallus (SPF chick), UniProt F1NSA8)
T17 construct: Uncharacterized protein, Gallus gallus, GN = RAP1A; source: endogenous, chicken bone marrow DC lysate
T17 sequence (F1NSA8 entry or part of it): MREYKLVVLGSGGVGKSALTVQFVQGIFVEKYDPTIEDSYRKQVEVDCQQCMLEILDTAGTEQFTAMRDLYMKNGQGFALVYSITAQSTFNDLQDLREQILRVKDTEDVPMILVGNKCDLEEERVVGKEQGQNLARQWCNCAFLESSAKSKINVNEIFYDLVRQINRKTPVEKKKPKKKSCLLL

[17] = target: T18, zf-C2H2_7 domain-containing protein (Gallus gallus (SPF chick), UniProt A0A8V0Z1I9)
T18 construct: zf-C2H2_7 domain-containing protein, Gallus gallus, GN = PRR35; also called PRR35; source: endogenous, chicken bone marrow DC lysate
T18 sequence (A0A8V0Z1I9 entry or part of it): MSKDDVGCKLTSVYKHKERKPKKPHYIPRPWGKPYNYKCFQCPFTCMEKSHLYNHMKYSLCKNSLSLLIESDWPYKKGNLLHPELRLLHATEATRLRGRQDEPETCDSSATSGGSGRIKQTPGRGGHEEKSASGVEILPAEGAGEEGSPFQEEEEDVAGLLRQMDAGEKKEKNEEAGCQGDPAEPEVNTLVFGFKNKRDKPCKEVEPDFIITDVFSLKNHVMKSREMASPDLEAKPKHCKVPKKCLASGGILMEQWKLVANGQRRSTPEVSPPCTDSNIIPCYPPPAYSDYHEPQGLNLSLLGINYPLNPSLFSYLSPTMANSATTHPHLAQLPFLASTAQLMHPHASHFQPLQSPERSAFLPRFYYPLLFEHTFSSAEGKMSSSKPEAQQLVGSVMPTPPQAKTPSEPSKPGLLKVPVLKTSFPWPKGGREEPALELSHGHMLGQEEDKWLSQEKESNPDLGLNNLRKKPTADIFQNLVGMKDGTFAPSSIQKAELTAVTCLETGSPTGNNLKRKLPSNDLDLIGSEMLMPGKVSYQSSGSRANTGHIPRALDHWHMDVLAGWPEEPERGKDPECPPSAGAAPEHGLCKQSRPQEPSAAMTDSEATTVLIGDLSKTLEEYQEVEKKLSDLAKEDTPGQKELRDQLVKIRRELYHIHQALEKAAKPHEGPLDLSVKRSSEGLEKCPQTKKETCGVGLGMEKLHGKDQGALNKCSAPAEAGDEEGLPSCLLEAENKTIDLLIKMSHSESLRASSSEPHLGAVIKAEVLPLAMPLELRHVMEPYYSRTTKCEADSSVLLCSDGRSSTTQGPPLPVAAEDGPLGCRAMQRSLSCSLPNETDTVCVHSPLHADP

Measured: binding result

B1: GST-VHH-54 (VHH)
VHH: QVQLVESGGGLVQPGGSLTLSCAASGFTFSKYPMTWVRQAPGKGLEWVSTITSGGTTTYADSVKGRFTISRDNAKDTLYLQMNSLKPEDTAIYYCAELGLPPGGQGTQVTVSS
notes: VHH from a non-immunised alpaca library; VHH gene of phage-54 fused with the GST gene in pGEX-4T-1; also called VVH-54; VVH54; source: expressed from pGEX-4T-1 and purified
binds: [1] | [2] | [3] | Calreticulin | [4] | [5] | [6] | [7] | [8] | [9]

B2: GST-VHH-74 (VHH)
VHH: QVQLVESGGGLVQEGGSLRLSCVVSGSRDSINAMGWYRQAPGKQRELVATVAGVGSTNYAASVKGRFSISMDNAKNTAYLQMNSLKPEDTAVYYCVADLRGSDRWLWAQGTQVTVSA
notes: VHH from a non-immunised alpaca library; VHH gene of phage-74 fused with the GST gene in pGEX-4T-1; also called VVH-74; source: expressed from pGEX-4T-1 and purified
binds: [10] | [11] | [12] | [13] | [14] | [15] | [16] | [17]
